Experimental data reported in article PMC11035067.
Blank lines part the entries; values can stand above or below the substance they belong to.

Tests used:
Assay in all cases: SEC; gel filtration during purification, Superdex 200 increase 10/300 GL in gel-filtration buffer (Table S2), non-actinic dim green light; self-association (dimer)
[1] = molecular target: IsPadC H193L (Idiomarina sp. A28L)
[2] = molecular target: IsPadC D199L (Idiomarina sp. A28L)
[3] = molecular target: IsPadC G449E (Idiomarina sp. A28L)
[4] = molecular target: IsPadC D199N (Idiomarina sp. A28L)
[5] = molecular target: Idiomarina species A28L phytochrome-activated diguanylate cyclase (IsPadC), wild type (Idiomarina sp. A28L)
[6] = molecular target: IsPadC R467S (Idiomarina sp. A28L)
[7] = molecular target: IsPadC H193Q (Idiomarina sp. A28L)

Substance: IsPadC H193L (enzyme)
stoichiometry N [1]: 2

Substance: IsPadC G449E (enzyme)
stoichiometry N [3]: 2

Substance: Idiomarina species A28L phytochrome-activated diguanylate cyclase (IsPadC), wild type (enzyme)
stoichiometry N [5]: 2

Substance: IsPadC H193Q (enzyme)
stoichiometry N [7]: 2

Results, then the substance that gave them:

stoichiometry N [2]: 2
Substance: IsPadC D199L (enzyme)

stoichiometry N [4]: 2
Substance: IsPadC D199N (enzyme)

stoichiometry N [6]: 2
Substance: IsPadC R467S (enzyme)
